Measurements as given in the Immune Epitope Database (IEDB).

Key:
[1] = target: HLA-B*27:03; assay: IEDB peptide-MHC binding, purified MHC/competitive/fluorescence; filed as Kd, often an IC50 or EC50 that approximates it; ≥ and ≤ were set here for values at or beyond the usual limits of such assays; details: source organism: Mycobacterium tuberculosis C
[2] = target: HLA-B*39:01; assay: as above; details: source organism: Mycobacterium tuberculosis C
[3] = target: HLA-B*15:01; assay: as above; details: source organism: Mycobacterium tuberculosis C
[4] = target: HLA-A*02:01; assay: as above; details: source organism: Mycobacterium tuberculosis C
[5] = target: HLA-A*02:16; assay: as above; details: source organism: Mycobacterium tuberculosis C
[6] = target: HLA-A*02:19; assay: as above; details: source organism: Mycobacterium tuberculosis C
[7] = target: HLA-A*68:02; assay: as above; details: source organism: Mycobacterium tuberculosis C
[8] = target: HLA-A*23:01; assay: as above
[9] = target: HLA-A*03:01; assay: as above; details: source organism: Mycobacterium tuberculosis C
[10] = target: HLA-B*15:17; assay: as above; details: source organism: Mycobacterium tuberculosis C
[11] = target: HLA-B*51:01; assay: as above; details: source organism: Mycobacterium tuberculosis C
[12] = target: HLA-A*02:03; assay: as above; details: source organism: Mycobacterium tuberculosis C
[13] = target: HLA-A*02:12; assay: as above; details: source organism: Mycobacterium tuberculosis C
[14] = target: HLA-B*46:01; assay: as above; details: source organism: Mycobacterium tuberculosis C
[15] = target: HLA-A*24:03; assay: as above; details: source organism: Mycobacterium tuberculosis C
[16] = target: HLA-B*57:01; assay: as above; details: source organism: Mycobacterium tuberculosis C
[17] = target: HLA-A*69:01; assay: as above; details: source organism: Mycobacterium tuberculosis C
[18] = target: HLA-B*18:01; assay: as above; details: source organism: Mycobacterium tuberculosis C
[19] = target: HLA-A*26:01; assay: as above; details: source organism: Mycobacterium tuberculosis C
[20] = target: HLA-A*02:11; assay: as above; details: source organism: Mycobacterium tuberculosis C
[21] = target: HLA-A*29:02; assay: as above; details: source organism: Mycobacterium tuberculosis C
[22] = target: HLA-B*53:01; assay: IEDB peptide-MHC binding, purified MHC/competitive/fluorescence; ≥ and ≤ were set here for values at or beyond the usual limits of such assays; details: source organism: Callithrix jacchus
[23] = target: HLA-B*07:02; assay: as above; details: source organism: Callithrix jacchus
[24] = target: HLA-A*11:01; assay: IEDB peptide-MHC binding, purified MHC/competitive/fluorescence; filed as Kd, often an IC50 or EC50 that approximates it; ≥ and ≤ were set here for values at or beyond the usual limits of such assays; details: source organism: Influenza A virus
[25] = target: HLA-A*80:01; assay: as above; details: source organism: Influenza A virus
[26] = target: HLA-B*27:05; assay: IEDB peptide-MHC binding, purified MHC/direct/fluorescence; filed as Kd, often an IC50 or EC50 that approximates it; ≥ and ≤ were set here for values at or beyond the usual limits of such assays; details: source organism: Influenza A virus (A/swine/Chiai/77-10/2001(H3N1))
[27] = target: HLA-B*39:01; assay: as above; details: source organism: Influenza A virus (A/turkey/NC/17026/1988(H1N1))
[28] = target: HLA-B*08:01; assay: as above; details: source organism: Influenza A virus (A/turkey/NC/17026/1988(H1N1))
[29] = target: HLA-B*15:01; assay: as above; details: source organism: Influenza A virus (A/swine/Chiai/77-10/2001(H3N1))
[30] = target: HLA-B*08:02; assay: as above; details: source organism: Influenza A virus (A/turkey/NC/17026/1988(H1N1))
[31] = target: HLA-A*02:01; assay: as above; details: source organism: Influenza A virus (A/swine/Chiai/77-10/2001(H3N1))
[32] = target: HLA-B*58:01; assay: as above; details: source organism: Influenza A virus (A/swine/Chiai/77-10/2001(H3N1))
[33] = target: HLA-A*03:01; assay: as above; details: source organism: Influenza A virus (A/swine/Chiai/77-10/2001(H3N1))
[34] = target: HLA-B*15:17; assay: as above; details: source organism: Influenza A virus (A/swine/Chiai/77-10/2001(H3N1))
[35] = target: HLA-B*46:01; assay: as above; details: source organism: Influenza A virus (A/swine/Chiai/77-10/2001(H3N1))
[36] = target: HLA-B*15:09; assay: as above; details: source organism: Influenza A virus (A/turkey/NC/17026/1988(H1N1))
[37] = target: HLA-B*57:01; assay: as above; details: source organism: Influenza A virus (A/swine/Chiai/77-10/2001(H3N1))
[38] = target: HLA-B*48:01; assay: as above; details: source organism: Influenza A virus (A/swine/Chiai/77-10/2001(H3N1))
[39] = target: HLA-A*31:01; assay: as above; details: source organism: Influenza A virus (A/swine/Chiai/77-10/2001(H3N1))
[40] = target: HLA-A*69:01; assay: as above; details: source organism: Influenza A virus (A/swine/Chiai/77-10/2001(H3N1))
[41] = target: HLA-B*40:01; assay: as above; details: source organism: Influenza A virus (A/swine/Chiai/77-10/2001(H3N1))
[42] = target: HLA-B*18:01; assay: as above; details: source organism: Influenza A virus (A/swine/Chiai/77-10/2001(H3N1))
[43] = target: HLA-B*07:02; assay: as above; details: source organism: Influenza A virus (A/swine/Chiai/77-10/2001(H3N1))
[44] = target: HLA-A*26:01; assay: as above; details: source organism: Influenza A virus (A/turkey/NC/17026/1988(H1N1))
[45] = target: HLA-A*01:01; assay: as above; details: source organism: Influenza A virus (A/swine/Chiai/77-10/2001(H3N1))

With SLVAIHLAC as the sequence, how does the Kd [1] read?
Its Kd is no less than 20 µM.

What about the Kd [2] of the same sequence?
Its Kd is no less than 20 µM.

And the Kd [3]?
Its Kd is no less than 20 µM.

What about the Kd [4] of the same sequence?
The Kd was no less than 20 µM.

And the Kd [5]?
The Kd was no less than 20 µM.

What about the Kd [6] of the same sequence?
The Kd was no less than 20 µM.

And the Kd [7]?
Its Kd is no less than 20 µM.

And the Kd ([8]; source organism: Mycobacterium tuberculosis C)?
The Kd was no less than 20 µM.

What about the Kd [9] of the same sequence?
Its Kd is no less than 20 µM.

And the Kd [10]?
Its Kd is no less than 20 µM.

And the Kd [11]?
Its Kd is no less than 20 µM.

What about the Kd [12] of the same sequence?
The Kd was no less than 20 µM.

What about the Kd [13] of the same sequence?
The Kd was no less than 20 µM.

And the Kd [14]?
The Kd was no less than 20 µM.

What about the Kd [15] of the same sequence?
Its Kd is no less than 20 µM.

And the Kd [16]?
Its Kd is no less than 20 µM.

And the Kd [17]?
Its Kd is no less than 20 µM.

What about the Kd [18] of the same sequence?
The Kd was no less than 20 µM.

What about the Kd [19] of the same sequence?
The Kd was no less than 20 µM.

And the Kd [20]?
The Kd was 0.443 µM.

And the Kd [21]?
The Kd was no less than 20 µM.

SYHNVDQLK was tested. Which Kd ([8]; source organism: Vibrio parahaemolyticus K5030) did it give?
The Kd was no less than 20 µM.

Which IC50 [22] does the source give for VPIAWAAA here?
Its IC50 is no less than 20 µM.

What about the IC50 [23] of the same sequence?
The IC50 was 0.144 µM.

VSFDQNLDY was tested. Which Kd [24] did it give?
Its Kd is 0.0987 µM.

What about the Kd [25] of the same sequence?
Its Kd is 0.0184 µM.

What about the Kd [26] of the same sequence?
Its Kd is no less than 20 µM.

What about the Kd [27] of the same sequence?
The Kd was no less than 20 µM.

What about the Kd [28] of the same sequence?
The Kd was no less than 20 µM.

And the Kd [29]?
The Kd was 0.019 µM.

And the Kd [30]?
Its Kd is no less than 20 µM.

What about the Kd [31] of the same sequence?
The Kd was no less than 20 µM.

And the Kd [32]?
Its Kd is 3.44 µM.

What about the Kd [33] of the same sequence?
Its Kd is 6.5 µM.

And the Kd [34]?
The Kd was 0.0016 µM.

What about the Kd [35] of the same sequence?
The Kd was no less than 20 µM.

And the Kd [36]?
Its Kd is no less than 20 µM.

What about the Kd [37] of the same sequence?
Its Kd is no less than 20 µM.

And the Kd [38]?
The Kd was no less than 20 µM.

And the Kd [39]?
Its Kd is no less than 20 µM.

What about the Kd [40] of the same sequence?
Its Kd is no less than 20 µM.

What about the Kd [41] of the same sequence?
The Kd was no less than 20 µM.

And the Kd [42]?
The Kd was no less than 20 µM.

What about the Kd [43] of the same sequence?
Its Kd is no less than 20 µM.

And the Kd [44]?
The Kd was no less than 20 µM.

And the Kd [45]?
The Kd was 0.117 µM.
